{"source": "paper doi:10.1101/2020.08.17.253781", "target": "GST-LOV2GIV (L) (Avena sativa | not stated)", "test": "pull-down", "data": [{"substance": "His-Gαi3 (from UniProt P08753 1-354) (natural protein)", "values": [{"measurement": "fold binding, lit over dark conformation of LOV2GIV", "value": 3, "unit": "fold"}]}]}
